The test system of assay [1] is fast axonal transport. Description: Vesicle motility assay in isolated squid axoplasm, perfusion of recombinant protein alone. It counts as cell-based, squid Loligo pealeii. As to the method:
Recombinant Polypeptides. Wild-type androgen receptor and polyQ-AR polypeptides were produced by in vitro transcription/translation (TNT T7-Coupled Reticulocyte Lysate System; Promega, Madison, Wis.) according to manufacturer's protocols. Typically, 1.8 μg of plasmid was transcribed in 50 μl reaction mix. To assess protein levels, parallel reactions were performed incorporating ^35S-labeled methionine (Amersham) or quantitative immunoblots were performed. Protein concentrations were typically 0.2-0.5 nM. In vitro translated androgen receptor has been characterized and shown to be functional (Kuiper, et al. (1993) Biochem. J. 296(Pt 1):161-7). In vitro translation products were briefly centrifuged to eliminate translation machinery, and supernatants frozen in liquid N2 until used.
Genes encoding human wild-type Huntingtin (Htt) (i.e., Q20, residues 1-548; Szebenyi, et al. (2003) supra) and polyQ-expanded Htt (i.e., Q46, residues 1-949; Qin, et al. (2004) J. Neurosci. 24(1):269-81) were cloned into the pcDNA.3 vector and produced by in vitro transcription/translation as described for the androgen receptor. Alternatively, shorter constructs (Htt exon1) were expressed in E. coli as GST-tagged proteins.
Squid Axoplasm. Isolated squid axoplasm represents a unique experimental system to evaluate axonal-specific effects and pathogenic mechanisms. This model was instrumental in the original discovery of kinesin-1 (Brady (1985) Nature 317:73-75, novel pathways for fast axonal transport (Morfini, et al. (2002) supra; Morfini, et al. (2004) supra), and axonal-specific phosphorylation events (Grant & Pant (2000) J. Neurocytol. 29:843-72). Bidirectional membrane-bound organelle movements are observed with properties unchanged from intact axons for hours after removal of plasma membrane (Brady, et al. (1982) Science 218:1129-1131). Video-enhanced microscopic techniques allow quantitative analysis of membrane-bound organelle movement in fast axonal transport. Typical kinesin-dependent transport rates are 1.5-2.0 μm/s, whereas retrograde, cytoplasmic dynein-dependent rates are 1-1.3 μm/s in perfused axoplasms. These rates are maintained with little (<10%) or no reduction for >1 hour after perfusion with control buffer (Brady, et al. (1982) supra). The lack of permeability barriers allows perfusion of the axoplasm with a variety of effector molecules at known concentrations. Effectors of interest include nucleotides, pharmacological inhibitors, recombinant polypeptides, and antibodies. Typically, 6-His, Hemagglutinin, Myc and GST-tagged recombinant proteins are either expressed in bacteria or in vitro translated, purified and perfused (Szebenyi, et al. (2003) supra; Morfini, et al. (2002) supra).
Motility Studies in Isolated Axoplasm. Axoplasm was extruded from giant axons of the squid Loligo pealeii (Marine Biological Laboratory, Woods Hole, Mass.) as described (Brady, et al. (1985) Cell Motil. 5:81-101). Axons were 400-600 μm in diameter and provided ≈5 μl of axoplasm. […] Preparations were analyzed on a ZEISS AXIOMAT with a 100×, 1.3 n.a. objective, and DIC optics. […] Organelle velocities were measured with a Photonics Microscopy C2117 video manipulator (Hamamatsu).

For assay [2], the target named is T1, kinesin-1 heavy chain (Rattus norvegicus, UniProt P56536).
T1 construct: coding for the first 584 amino acids of rat KHC (KHC-584); made in house; host or cells: E. coli
T1 sequence (P56536 1-584 limits assumed): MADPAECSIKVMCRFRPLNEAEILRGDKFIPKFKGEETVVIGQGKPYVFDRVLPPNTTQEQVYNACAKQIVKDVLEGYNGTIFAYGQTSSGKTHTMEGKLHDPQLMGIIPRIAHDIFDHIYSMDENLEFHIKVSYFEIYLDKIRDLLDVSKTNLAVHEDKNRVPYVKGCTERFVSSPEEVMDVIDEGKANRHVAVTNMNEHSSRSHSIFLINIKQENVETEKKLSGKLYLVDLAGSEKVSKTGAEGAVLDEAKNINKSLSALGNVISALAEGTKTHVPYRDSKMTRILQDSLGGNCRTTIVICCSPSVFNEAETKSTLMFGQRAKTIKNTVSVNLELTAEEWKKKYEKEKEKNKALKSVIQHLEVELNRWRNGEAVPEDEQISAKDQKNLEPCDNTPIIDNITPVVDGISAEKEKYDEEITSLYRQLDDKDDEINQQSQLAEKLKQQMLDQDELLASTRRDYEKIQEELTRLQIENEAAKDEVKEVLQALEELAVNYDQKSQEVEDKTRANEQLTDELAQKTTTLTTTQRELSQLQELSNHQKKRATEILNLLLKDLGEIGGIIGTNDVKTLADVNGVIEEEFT
In words: Binding of kinesin-1 to microtubules after JNK3 treatment. Type of assay: biochemical. Particulars: kinesin-1 heavy chain treated with JNK3 kinase. As to the method: Microtubule Binding Assays. Microtubule binding assays was performed according to established methods (Stenoien & Brady (1997) supra). Briefly, three 70% confluent 100-mm culture dishes containing either wild-type or 902-6 SH-SY5Y cells were homogenized with 500 μl of HEM buffer (50 mM HEPES, 1 mM EGTA, 2 mM MgSO4, 1% TRITON X-100, pH 7.2, 1 μM staurosporine, 1 μM K252a, 50 nM okadaic acid and 1/100 mammalian protease inhibitor cocktail (Sigma) at 4° C. Lysates were centrifuged at 50000 rpm for 5 minutes at 4° C.
Six hundred μg of total protein from clarified wild-type or 902-6 SH-SY5Y cells were incubated with 0.2 mg of TAXOL-stabilized microtubules (Cytoskeleton, Denver, Colo.) and 2.5 mM AMP-PNP for 30 minutes at 37° C. Samples were centrifuged for 25 minutes at 50000 rpm (4° C.) over a cushion of 20% sucrose in HEM plus 20 μM TAXOL. Pellets and supernatants were collected and the amount of kinesin in each fraction was assayed by immunoblot with anti-kinesin monoclonal antibodies.
In Vitro Kinesin-1 Phosphorylation. A recombinant cDNA fragment coding for the first 584 amino acids of rat KHC (KHC-584) was subcloned into pET expression vector, expressed in E. coli and purified by nickel affinity chromatography (Qiagen, Valencia, Calif.). […]

Where [3] appears, read: perfused, concentration not given.

B1: JNK1: recombinant, active JNK1 protein (protein, UniProt P45983 1-427, looked up)
Mitogen-activated protein …: MSRSKRDNNFYSVEIGDSTFTVLKRYQNLKPIGSGAQGIVCAAYDAILERNVAIKKLSRPFQNQTHAKRAYRELVLMKCVNHKNIIGLLNVFTPQKSLEEFQDVYIVMELMDANLCQVIQMELDHERMSYLLYQMLCGIKHLHSAGIIHRDLKPSNIVVKSDCTLKILDFGLARTAGTSFMMTPYVVTRYYRAPEVILGMGYKENVDLWSVGCIMGEMVCHKILFPGRDYIDQWNKVIEQLGTPCPEFMKKLQPTVRTYVENRPKYAGYSFEKLFPDVLFPADSEHNKLKASQARDLLSKMLVIDASKRISVDEALQHPYINVWYDPSEAEAPPPKIPDKQLDEREHTIEEWKELIYKEVMDLEERTKNGVIRGQPSPLGAAVINGSQHPSSSSSVNDVSSMSTDPTLASDTDSSLEAAAGPLGCCR
Take B1: the “effect on fast axonal transport” value in assay [1] (perfused at 200 nM) is listed as “did not show any effect on either direction of fast axonal transport”.

B2: JNK3: recombinant, active JNK3 protein (protein, UniProt P53779 1-464, looked up)
Mitogen-activated protein …: MSLHFLYYCSEPTLDVKIAFCQGFDKQVDVSYIAKHYNMSKSKVDNQFYSVEVGDSTFTVLKRYQNLKPIGSGAQGIVCAAYDAVLDRNVAIKKLSRPFQNQTHAKRAYRELVLMKCVNHKNIISLLNVFTPQKTLEEFQDVYLVMELMDANLCQVIQMELDHERMSYLLYQMLCGIKHLHSAGIIHRDLKPSNIVVKSDCTLKILDFGLARTAGTSFMMTPYVVTRYYRAPEVILGMGYKENVDIWSVGCIMGEMVRHKILFPGRDYIDQWNKVIEQLGTPCPEFMKKLQPTVRNYVENRPKYAGLTFPKLFPDSLFPADSEHNKLKASQARDLLSKMLVIDPAKRISVDDALQHPYINVWYDPAEVEAPPPQIYDKQLDEREHTIEEWKELIYKEVMNSEEKTKNGVVKGQPSPSGAAVNSSESLPPSSSVNDISSMSTDQTLASDTDSSLEASAGPLGCCR
B2: in assay [1] (setting [3]), the “mean rate for anterograde fast axonal transport” value was found to be 0.9 µM/s and the “retrograde, cytoplasmic dynein-dependent fast axonal transport mean rate” value was found to be 1.25 µM/s. Moreover, the “effect on binding of kinesin-1 to microtubules” value in assay [2] was “inhibits the binding of kinesin-1 to microtubules”.

B3: wild-type Htt: human wild-type Huntingtin (Q20, residues 1-548) produced by in vitro transcription/translation (protein, UniProt P42858 1-548, looked up, fragment)
chain: MATLEKLMKAFESLKSFQQQQQQQQQQQQQQQQQQQQQPPPPPPPPPPPQLPQPPPQAQPLLPQPQPPPPPPPPPPGPAVAEEPLHRPKKELSATKKDRVNHCLTICENIVAQSVRNSPEFQKLLGIAMELFLLCSDDAESDVRMVADECLNKVIKALMDSNLPRLQLELYKEIKKNGAPRSLRAALWRFAELAHLVRPQKCRPYLVNLLPCLTRTSKRPEESVQETLAAAVPKIMASFGNFANDNEIKVLLKAFIANLKSSSPTIRRTAAGSAVSICQHSRRTQYFYSWLLNVLLGLLVPVEDEHSTLLILGVLLTLRYLVPLLQQQVKDTSLKGSFGVTRKEMEVSPSAEQLVQVYELTLHHTQHQDHNVVTGALELLQQLFRTPPPELLQTLTAVGGIGQLTAAKEESGGRSRSGSIVELIAGGGSSCSPVLSRKQKGKVLLGEEEALEDDSESRSDVSSSALTASVKDEISGELAASSGVSTPGSAGHDIITEQPRSQHTLQADSVDLASCDLTSSATDGDEEDILSHSSSQVSAVPSDPAMDL
modifications: Q20
notes: human wild-type Huntingtin (Q20, residues 1-548) produced by in vitro transcription/translation
For B3, the “effect on fast axonal transport” value in assay [1] (perfused alone) is reported as “showed no effect on either direction of fast axonal transport”.

B4: polyQ-Htt: polyQ-expanded Huntingtin (Q46, residues 1-949) produced by in vitro transcription/translation (protein, UniProt P42858 1-949, looked up, fragment)
chain: MATLEKLMKAFESLKSFQQQQQQQQQQQQQQQQQQQQQPPPPPPPPPPPQLPQPPPQAQPLLPQPQPPPPPPPPPPGPAVAEEPLHRPKKELSATKKDRVNHCLTICENIVAQSVRNSPEFQKLLGIAMELFLLCSDDAESDVRMVADECLNKVIKALMDSNLPRLQLELYKEIKKNGAPRSLRAALWRFAELAHLVRPQKCRPYLVNLLPCLTRTSKRPEESVQETLAAAVPKIMASFGNFANDNEIKVLLKAFIANLKSSSPTIRRTAAGSAVSICQHSRRTQYFYSWLLNVLLGLLVPVEDEHSTLLILGVLLTLRYLVPLLQQQVKDTSLKGSFGVTRKEMEVSPSAEQLVQVYELTLHHTQHQDHNVVTGALELLQQLFRTPPPELLQTLTAVGGIGQLTAAKEESGGRSRSGSIVELIAGGGSSCSPVLSRKQKGKVLLGEEEALEDDSESRSDVSSSALTASVKDEISGELAASSGVSTPGSAGHDIITEQPRSQHTLQADSVDLASCDLTSSATDGDEEDILSHSSSQVSAVPSDPAMDLNDGTQASSPISDSSQTTTEGPDSAVTPSDSSEIVLDGTDNQYLGLQIGQPQDEDEEATGILPDEASEAFRNSSMALQQAHLLKNMSHCRQPSDSSVDKFVLRDEATEPGDQENKPCRIKGDIGQSTDDDSAPLVHCVRLLSASFLLTGGKNVLVPDRDVRVSVKALALSCVGAAVALHPESFFSKLYKVPLDTTEYPEEQYVSDILNYIDHGDPQVRGATAILCGTLICSILSRSRFHVGDWMGTIRTLTGNTFSLADCIPLLRKTLKDESSVTCKLACTAVRNCVMSLCSSSYSELGLQLIIDVLTLRNSSYWLVRTELLETLAEIDFRLVSFLEAKAENLHRGAHHYTGLLKLQERVLNNVVIHLLGDEDPRVRHVAAASLIRLVPKLFYKCDQGQADP
modifications: polyQ expanded to Q46
notes: polyQ-expanded Huntingtin (Q46, residues 1-949) produced by in vitro transcription/translation
On to B4, for which the “effect on fast axonal transport” value in assay [1] (perfused alone) was “striking inhibition of fast axonal transport rates”.

Source of the values: patent US20090252717A1, “Compositions and Methods for Treating Polyglutamine-Expansion Neurodegenerative Diseases” (priority 2006, published 2009).
